Laboratory results: patent US20200408687, “Polarization-Based Fluorescent Nucleic Acid Detection” (The General Hospital Corporation, published 2020)

Biological target: Taq DNA polymerase (UniProt P19821 P19821:1-832)
Assay: EMSA; band of key/amplicon hybrid shifted on adding Taq; 4 mM MgCl2, 20 mM Tris-HCl pH 8.3, 20 mM KCl, room temp; text does not name the individual keys run
Conditions: tags: New England Biolabs (band shift); Maxima Hot Start Taq, Thermo Scientific, in PAD assay
Experimental: Electrophoretic Band Shift Experiment Solution containing 100 or 200 nM detection key, PCR products and 12.5 U Taq DNA polymerase (New England Biolabs) in 20 mM Tris-HCl (pH 8.3), 20 mM KCl, 5 mM (NH4)2SO4, and 4 mM MgCl2 was incubated at room temperature for 20 min. The solution was mixed with 6× loading buffer and subjected to electrophoresis on a 20% polyacrylamide gel (Life technologies). The analysis was carried out in 1× TBE (100 mM Tris, 90 mM Borate, 1 mM EDTA) at 150 V for 160 min at 4° C. After GelRed (Biotium) staining, gels were scanned using a UV transilluminator. DNA polymerase was neither fluorescent nor stained by the dye.
The sequence homology among genus types was kept <50% to minimize non-specific binding. When tested, the HAI keys assumed high specificity. […] Electrophoretic band-shift analysis confirmed that the detection keys, in the presence of complementary target amplicon, bound to DNA polymerase and inhibited its catalytic activity (see FIG. 24). […] This confirmed the binding between detection keys and DNA polymerase.

Chain of Taq DNA polymerase (P19821 whole entry, one chain of several): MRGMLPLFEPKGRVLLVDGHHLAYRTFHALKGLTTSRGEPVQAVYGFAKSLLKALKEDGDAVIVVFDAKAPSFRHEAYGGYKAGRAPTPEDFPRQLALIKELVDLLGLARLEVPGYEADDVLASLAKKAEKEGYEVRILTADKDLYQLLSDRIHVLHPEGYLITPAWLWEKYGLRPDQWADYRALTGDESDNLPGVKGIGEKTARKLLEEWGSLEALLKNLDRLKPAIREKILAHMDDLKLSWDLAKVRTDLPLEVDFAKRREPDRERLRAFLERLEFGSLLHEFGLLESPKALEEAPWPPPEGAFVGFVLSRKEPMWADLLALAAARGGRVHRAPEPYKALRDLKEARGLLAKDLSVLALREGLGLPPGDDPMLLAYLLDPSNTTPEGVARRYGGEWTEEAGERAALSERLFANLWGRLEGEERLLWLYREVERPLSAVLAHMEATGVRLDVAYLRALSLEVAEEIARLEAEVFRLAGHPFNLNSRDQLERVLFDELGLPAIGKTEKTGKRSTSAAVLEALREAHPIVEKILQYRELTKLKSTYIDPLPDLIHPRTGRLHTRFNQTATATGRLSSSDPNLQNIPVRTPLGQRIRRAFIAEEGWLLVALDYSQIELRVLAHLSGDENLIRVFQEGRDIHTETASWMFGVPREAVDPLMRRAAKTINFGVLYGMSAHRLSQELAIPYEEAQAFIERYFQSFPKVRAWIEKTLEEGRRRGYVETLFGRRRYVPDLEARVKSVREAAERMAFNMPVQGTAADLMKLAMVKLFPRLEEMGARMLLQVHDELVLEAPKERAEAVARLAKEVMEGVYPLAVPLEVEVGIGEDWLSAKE

B1: Escherichia detection key / Escherichia amplicon (mixed)
DNA 1: CAATGTACAGTATTGTGGAGGAAGGGAGTAAAGTTAAT
DNA 2: TGCGGGTAACGTCAATGAGCAAAGGTATTAACTTTACTCCCTTCCTCCA
modifications: amplicon strand dU in place of dT in dUTP assay
B1: binds.
